These are literature values, as cited in PMC6944378.

The target in the data set is MASP-2 (Homo sapiens) (UniProt O00187). As to the kind of experiment: SPR. (In general: In SPR one partner is held on a chip, and binding of the other changes the refractive index at the surface.)
MASP-2 (Homo sapiens), sequence (O00187 16-686): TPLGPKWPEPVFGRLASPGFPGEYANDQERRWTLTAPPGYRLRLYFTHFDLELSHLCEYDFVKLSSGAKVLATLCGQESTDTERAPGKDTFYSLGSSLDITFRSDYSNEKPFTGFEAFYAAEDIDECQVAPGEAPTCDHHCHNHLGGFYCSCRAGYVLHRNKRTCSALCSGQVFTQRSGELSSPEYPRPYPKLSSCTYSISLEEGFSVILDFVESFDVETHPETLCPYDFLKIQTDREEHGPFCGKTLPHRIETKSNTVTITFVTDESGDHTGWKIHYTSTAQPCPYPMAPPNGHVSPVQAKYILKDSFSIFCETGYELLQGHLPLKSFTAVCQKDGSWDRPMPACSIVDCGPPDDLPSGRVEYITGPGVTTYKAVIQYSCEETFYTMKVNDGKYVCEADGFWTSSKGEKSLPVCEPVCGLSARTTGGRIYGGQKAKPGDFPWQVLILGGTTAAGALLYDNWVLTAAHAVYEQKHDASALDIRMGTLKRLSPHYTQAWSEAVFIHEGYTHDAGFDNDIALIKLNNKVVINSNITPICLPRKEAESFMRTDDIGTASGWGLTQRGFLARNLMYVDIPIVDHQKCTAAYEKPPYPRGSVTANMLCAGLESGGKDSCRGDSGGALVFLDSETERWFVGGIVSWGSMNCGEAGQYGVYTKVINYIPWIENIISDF

In general, Kd refers to a measure of binding affinity in units of concentration. ecotin (from UniProt P23827): the dissociation constant (Kd) is 24.7 nM.
